Experiment [1] has as its target cynomolgus monkey CD3 epsilon 1-26_Fc fusion protein. Nature of the experiment: SPR. Background: Surface plasmon resonance follows binding to a sensor surface in real time, without labels.
The target of experiment [2] is human CD3 epsilon 1-26_Fc fusion protein. The experiment can be described thus: SPR.

What is called Kd is the constant that tells how readily two partners part at equilibrium.

B1: humanized 9G7 best-framework antibody (antibody, V domains shown)
VH: EVQLVESGGGLVQPGGSLRLSCAFSGLSLSTSGKGVGWIRQAPGKGLEWLAHIWWDDDKRYNPALKSRLTISKDTSKNTVYLQMNSLRAEDTAVYYCARIELGRSYVMDYWGQGTLVTVSS
VL: DIQMTQSPSSLSASVGDRVTITCRASQDVITSVAWFQQKPGKAPKLLIYSASYRYTGVPSRFSGSGSGTDFTLTISSLQPEDFATYYCQQHYTIPLTFGQGTKVEIKR
As for B1, the values for the Kd in experiment [1] and in experiment [2] were 1 nM and 0.4 nM, respectively.

B2: humanized 9G7 best-fit antibody (antibody, V domains shown)
VH: QVTLKESGPTLVKPTQTLTLTCTFSGLSLSTSGKGVGWIRQPPGKALEWLAHIWWDDDKRYNPALKSRLTITKDTSKNQVVLTMTNMDPVDTATYYCARIELGRSYVMDYWGQGTLVTVSS
VL: DIQMTQSPSSLSASVGDRVTITCQASQDVITSVAWYQQKPGKAPKLLIYSASYRYTGVPSRFSGSGSGTDFTFTISSLQPEDIATYYCQQHYTIPLTFGQGTKLEIKR
B2: the Kd in experiment [1] was 3.2 nM; in experiment [2] it was 0.5 nM.

B3: chimeric 9G7 antibody (antibody, V domains shown)
VH: QVTLKESGPGILQPSQTLSLTCSFSGLSLSTSGKGVGWIRQPSGKGLEWLAHIWWDDDKRYNPALKSRLTISKDTSSNQVFLKIASVDTADTATYYCARIELGRSYVMDYWGQGTTVTVSS
VL: DIVMTQSHKFMSTSVGDRVSISCKASQDVITSVAWFQQKPGQSPKLLIYSASYRYTGVPDRFTGSGSGTDFTFTISSVQAEDLAVYYCQQHYTIPLTFGAGTKLELKR
With B3, the Kd was found to be 1 nM in experiment [1] and 0.4 nM in experiment [2].

Source of the values: US20180355064A1 (published 2018).
